Three molecules from publication PMC3806657 (Molecular Biology of the Cell, 2013) can be followed below.

T1: 6His-tagged GEF domain of Gef2 (aa 211-600) (S. pombe, UniProt Q09733 211-600)
T1 sequence: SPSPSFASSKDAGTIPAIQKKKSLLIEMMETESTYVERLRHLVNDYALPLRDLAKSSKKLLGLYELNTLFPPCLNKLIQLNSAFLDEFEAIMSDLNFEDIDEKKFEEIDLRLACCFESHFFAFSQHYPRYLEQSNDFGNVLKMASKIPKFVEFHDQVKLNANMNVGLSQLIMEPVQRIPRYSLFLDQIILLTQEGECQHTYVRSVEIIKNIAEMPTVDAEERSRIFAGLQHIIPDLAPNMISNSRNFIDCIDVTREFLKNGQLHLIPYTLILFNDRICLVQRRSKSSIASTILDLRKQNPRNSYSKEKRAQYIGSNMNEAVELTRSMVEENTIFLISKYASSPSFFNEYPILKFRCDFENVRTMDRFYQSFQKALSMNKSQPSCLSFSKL

B1: GST-Rho1 (enzyme)
chain: MATELRRKLVIVGDGACGKTCLLIVFSKGTFPEVYVPTVFENYVADVEVDGRHVELALWDTAGQEDYDRLRPLSYPDSHVILICFAVDSPDSLDNVQEKWISEVLHFCSSLPILLVACKADLRNDPKIIEELSKTNQHPVTTEEGQAVAQKIGAYKYLECSAKTNEGVREVFESATRAAMLKHKPKVKPSSGTKKKKRCILL
B2: GST-Rho5 (enzyme)
chain: MTTELRRKLVIVGDGACGKTCLLIVFSKGTFPEVYVPTVFENYVADVEVDGRHIELALWDTAGQEDYDRLRPLSYPDSHVVLICFSVDAPESLDNVQEKWISEVLHFCSNLPILLVGCKVDLRNDPKTIEELSKTSQKPITFEEGQVVAQKIGAYKYLECSAKLNEGVNEVFETAARASMLKFKPASVPKTKKKKHCILL
B3: GST-Rho4 (enzyme)
chain: MSAFKKSGSKSETSKKLVVVGDGGCGKTCLLIVFSSGTFPERYVPTVFENYITDITYGPNSKVIELALWDTAGQEEYDRLRPLSYPNSNVILLCFSIDCPASLNNVTEKWYPEVQHFCPRTPIVLVGLKADLRKDRNATEVLRTQGLTPVTYQQAQSVALSMNAPYVECSAKENTGVNEVFQLAVGLTIKKSFSFSKKSCVIL

The target in the assay is T1, 6His-tagged GEF domain of Gef2 (aa …). The experiment in a line: pull-down.
Regarding B1, the binding result is given as “binds”.
As to B2, the binding result is reported as “binds”.
On to B3, for which the binding result is “binds”.
